Test results reported in patent US20240043504A1 (published 2024).

B1: mAb10982 (antibody, V domains shown)
VH: EVQLVESGGGLVQPGGSLRLSCAASGLTVSSNYMSWVRQAPGKGLEWVSVIYSGGTTYYADSVKGRFTISRHNSKNTLSLQMNSLRAEDTAVYYCARGEGANYYGMDVWGQGTTVTVSS
VL: QSVLTQPPSVSGAPGQRVTISCTGSSSNIGTGYDVHWYQQLPGTAPKLLIYGNSNRPSGVPDRFSGSKSGTSASLAITGLQAEDEADYYCQSYDSSLSGYVVFGGGTKLTVLG
B2: mAb10985 (antibody, V domains shown)
VH: EVQLVESGGGLVQPGRSLRLSCAASGFTFDDYAMHWVRQAPGKGLEWVSGISWNRGSIGYADSVKGRFTISRDNAKNSLYLQMSSLRAEDTALYYCAKDGERWDSVVVPSARNGMDVWGQGTTVTVSS
VL: QSVLTQPPSVSGAPGQRVTISCTGSSSNIGAGYDVHWYQQLPGTAPKLLIYGNSNRPSGVPDRFSGSKSGTSASLAITGLQAEDEADYYCQSYDSSLSGSYVFGTGTKVTVLG
B3: mAb10986 (antibody, V domains shown)
VH: EVQLVESGGGLVQPGGSLRLSCAASEFTVSSNYMSWVRQAPGKGLEWVSVIYSGGSTFYADSVKGRFTISRDNSKNTLYLQMNSLRAEDTAVYYCARALPYGDLHFDYWGQGTLVTVSS
VL: QSVLTQPPSVSGAPGQRVTISCTGSSSNIGTGYDVHWYQQLPGTAPKLLIYGNTNRPSGVPDRFSGSKSGTSASLAITGLQAEDEADYYCQSYDSSLSDSYVFGTGTKVTVLG
B4: mAb10969 (antibody, V domains shown)
VH: QVQLVESGGGVVQPGRSLRLSCAASGFTFSSYAMHWVRQAPGKGLEWVAVISYDGSNKYYADSVKGRFTISRDNSKNTLYLQMNSLRAEDTAVYYCARDGRTITMVRGVIDDAFDIWGQGTMVTVSS
VL: not shown
B5: mAb10964 (antibody, V domains shown)
VH: QVQLQESGPGLVKPSETLSLTCTVSGGSINNYYWIWIRQPPGKGLEWIGYIYHSGSTNYNPSLKSRVTISVDTSKNQFSLKVSSVTAADTAVYYCANMVRGVYEDDYWGQGTLVTVSS
VL: DIQMTQSPSSLSASVGDRVTITCRASQSISNYLNWYQQKPGKAPKLLIFAASSLRSGVPSRFSGSGSGTDFTLTISSLHPEDFATYYCQQNYNTPLTFGPGTKVDIKR
B6: mAb10971 (antibody, V domains shown)
VH: EVQLVESGGGLIQPGGSLRLSCAASGVTVSSNYMSWVRQAPGKGLEWVSVIYSGGSTFYSDSVKGRFSISRDNSKNTLYLQMNSLRAEDTAVYYCARDLYYYGMDVWGQGTTVTVSS
VL: DIQLTQSPSFLSASVGDRVTITCRASQGISTYLAWYQQKPGKAPKLLIYAASTLQSGVPSRFSGSGSGTEFTLTISSLQPEDFATYYCQQLDSYPGLTFGGGTKVEIKR
B7: mAb10984 (antibody, V domains shown)
VH: EVQLVESGGGLVQPGGSLRLSCAASGLTVNRNYMSWVRQAPGKGLEWVSLIYSGGSTYYADSVKGRFTISRDNSKNTLYLQMNSLRLEDTAVYYCARGELGIPYGMDVWGQGTTVTVSS
VL: QSVLTQPPSVSAAPGQKVTISCSGSSSNIGNNYVSWYQQLPGTAPKLLIYDNNKRPSGIPDRFSGSKSGTSATLGITGLQTGDEADYYCGTWDSSLSAGVFGGGTKLTVLG
B8: mAb10939 (antibody, V domains shown)
VH: EVQLVESGGGLVQPGGSLRLSCAASGLTVSSNYMNWVRQVPGKGLEWVSVIYSGGSKFYVDSVKGRFTISRHNSKNTLYLQMNSLRPEDTAVYYCTRDAQYYGMDVWGQGTTVTVSS
VL: DIQMTQSPSSLSASVGDRVTITCRASQSISTYLHWYQQKPGEAPKLLIYAASSLQSGVPSRFSGSGSGTDFTLTISSLQPEDFATYYCQQSYSTPPEIFGQGTKLEIKR
B9: mAb10989 (antibody, V domains shown)
VH: QVQLVQSGAEVKKPGASVKVSCKASGYIFTGYYMHWVRQAPGQGLEWMGWINPNSGGANYAQKFQGRVTLTRDTSITTVYMELSRLRFDDTAVYYCARGSRYDWNQNNWFDPWGQGTLVTVSS
VL: QSALTQPASVSGSPGQSITISCTGTSSDVGTYNYVSWYQQHPGKAPKLMIFDVSNRPSGVSDRFSGSKSGNTASLTISGLQAEDEADYYCSSFTTSSTVVFGGGTKLTVLG

Biological target: SARS-CoV-2 RBD-hFc (SARS-CoV-2)
Experiment: Luminex beads

Binder | binding result
B1 | binds
B2 | binds
B3 | binds
B4 | binds
B5 | binds
B6 | binds
B7 | binds
B8 | binds
B9 | binds
